Experiments:
Format in all cases: physicochemical, human
mAb1 [1] = experiment: Light stress of mAb1 formulation (eight hours at 250 W/m^2), papain digest RP-HPLC; details: eight hours of light at 250 W/m^2
Protocol: L-tryptophan (L-Trp), an antioxidant used in protein formulations, has been recently shown to be photosensitive (Igarashi et al., Anal Sci 23(8):943-8 (2007)) and to have the ability to produce H2O2 upon light exposure. […] Control vials were wrapped in aluminum foil and treated similarly. After light exposure, solutions were prepared for analysis by reverse-phase HPLC. […] Following incubation, 900 μL of the solution was combined with 100 μL of 1 M dithiothreitol (DTT) and incubated for another thirty minutes at 37° C. Samples were then run on an Agilent, Inc. 1100/1200 HPLC system (Santa Clara, Calif.) equipped with UV detection at 280 nm in conjunction with a Varian, Inc. Pursuit 3 μm, 2 mm ID×250 mm diphenyl column (Palo Alto, Calif.). Mobile Phase A was 0.1% TFA in water. Mobile Phase B was 0.1% TFA in acetonitrile. The mobile phase gradient increased linearly from 34% B at 0 minutes to 43% B at 50.0 minutes, then to 95% B at 50.1 minutes. The gradient remained at 95% B until 60.1 minutes, and then decreased linearly from 95% B to 34% B between 60.1 and 60.2 minutes. The gradient remained at 34% B until the end of the cycle at 80.2 minutes. The column temperature was 65° C., total flow rate was 0.2 mL/min, and injection volume of each sample was 6 μL. Chromatograms were then integrated for quantification of oxidation.

mAb1 [2] = experiment: mAb1 light stress study (16 hours at 250 W/m^2), RP-HPLC; details: 16 hours of light at 250 W/m^2
Protocol: The fragments were reduced with DTT, and then separated and identified via Liquid Chromatography-Mass Spectrometry (LC-MS). […] Comparison of area integrated under the oxidized and native peaks was used to quantify HC Fab and Fc oxidation. […] By using the papain digest RP-HPLC method in the present study it was possible to investigate Trp residue oxidation by quantifying HC Fab oxidation, and Met residue oxidation by quantifying HC Fc oxidation.
Antioxidants were added at 1 mM. Glass vials containing these formulations were exposed to 250 W/m^2 light in an Atlas SunTest CPS+ Xenon Test Instrument (Chicago, Ill.). Control vials were wrapped in aluminum foil and treated similarly. After light exposure, solutions were prepared for analysis by reverse-phase HPLC as described above.

mAb1 [3] = experiment: mAb1 Fenton stress study (H2O2 + Fe), RP-HPLC; details: 10 ppm H2O2 and 0.2 mM Fe(III), 40° C. for 3 hours; no excipient
Protocol: Antioxidants were added at a final concentration of 1 mM. […] After incubation, each reaction was quenched by addition of 100 mM L-Met and then prepared for analysis by reverse-phase HPLC as described above.
The Fenton reaction, using a mixture of H2O2 and Fe ions, generates oxidation through a metal catalyzed, hydroxyl radical reaction (Prousek et al., Pure and Applied Chemistry 79(12):2325-2338 (2007)). This reaction generated Fab, i.e. tryptophan, oxidation in mAb1. The reaction was also carried out in the presence of select antioxidants that were useful against both AAPH and light induced oxidation as reported above. Data related to the antioxidant properties against Fenton mediated reaction were analyzed using the RP-HPLC assay as described above. The Fenton reaction used 10 ppm of H2O2 and 0.2 mM of Fe(III). The reaction was incubated at 40° C. for 3 hours, quenched with 100 mM L-Met and analyzed using RP-HPLC after papain digest. All samples were the average of three separate vials, and mAb1 control (Ref Mat) was one vial with five independent injections on the HPLC. […] In regards to protection against Fc oxidation, the tested excipients (other than salicylic acid) performed slightly better than L-Trp.

Substance: drozitumab [mAb1]
- Fc oxidation, effect in words (mAb1 [1]; no excipient, or 10, 25, 50 and 100 mM L-Met added to 1 mM L-Trp): only a minor increase in Fc oxidation
- Fab oxidation (mAb1 [1]; mAb1 5 mg/mL, no excipient or 1 mM L-Trp, reference material and foil control about 2%): 4%
- Fab oxidation increase over the control level (mAb1 Ref Mat) (mAb1 [2]; excipient 1 mM or none): 3.5 fold
- Increase in Fc oxidation over the control level (mAb1 [2]; no excipient): 40%
- Oxidation in the Fab region over the control (mAb1 [3]): about four times

— patent US11596620B2, “Formulations with reduced oxidation” (Genentech, Inc., priority 2013, dated 2023)
